This assay has as its target T1, CD5-His-GST (human, UniProt P06127 25-372).
T1 construct: Expressed in 293T cells, purified by nickel chromatography; also called Recombinant CD5; Tagged CD5 antigen; not shown: C-terminal Factor Xa site; 6X His tag; GST protein
T1 sequence: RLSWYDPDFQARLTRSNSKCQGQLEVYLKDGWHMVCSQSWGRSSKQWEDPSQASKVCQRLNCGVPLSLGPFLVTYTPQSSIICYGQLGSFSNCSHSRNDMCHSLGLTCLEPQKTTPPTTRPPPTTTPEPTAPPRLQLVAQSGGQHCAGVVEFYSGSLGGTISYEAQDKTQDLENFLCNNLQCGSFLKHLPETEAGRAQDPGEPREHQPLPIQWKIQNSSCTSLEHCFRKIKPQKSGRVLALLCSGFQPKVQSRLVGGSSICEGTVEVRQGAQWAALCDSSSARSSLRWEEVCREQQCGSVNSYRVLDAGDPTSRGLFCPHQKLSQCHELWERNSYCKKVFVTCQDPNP
Put plainly: Biacore (SPR), global Langmuir fits.

One molecule from WO2008121160A2 (dated 2008) can be followed below.

B1: 5D7_H0L0_IgG1_WT (antibody, V domains shown)
VH: QVTLKESGPGILKPSQTLSLTCSFSGFSLSTSGMGVGWIRQPSGKGLEWLAHIWWDDDVYYNPSLKNQLTISKDASRDQVFLKITNLDTADTATYYCVRRRATGTGFDYWGQGTTLTVSS
VL: NIVMTQSHKFMSTSVGDRVSIACKASQDVGTAVAWYQQKPGQSPKLLIYWTSTRHTGVPDRFTGSGSGTDFTLTITNVQSEDLADYFCHQYNSYNTFGSGTRLELKR
notes: also called chimeric 5D7; H0L0 5D7
B1 returned a dissociation constant Kd of around 1.5 nM.
